Laboratory results as given in article PMC5887453 (Nucleic Acids Research, 2018).

How the values were obtained:
PhoEF-2 K225S = target: T1, PhoEF-2 K225S (Pyrococcus horikoshii, UniProt O59521 1-732, K225S); assay: native gel or EMSA
T1 sequence (looked up): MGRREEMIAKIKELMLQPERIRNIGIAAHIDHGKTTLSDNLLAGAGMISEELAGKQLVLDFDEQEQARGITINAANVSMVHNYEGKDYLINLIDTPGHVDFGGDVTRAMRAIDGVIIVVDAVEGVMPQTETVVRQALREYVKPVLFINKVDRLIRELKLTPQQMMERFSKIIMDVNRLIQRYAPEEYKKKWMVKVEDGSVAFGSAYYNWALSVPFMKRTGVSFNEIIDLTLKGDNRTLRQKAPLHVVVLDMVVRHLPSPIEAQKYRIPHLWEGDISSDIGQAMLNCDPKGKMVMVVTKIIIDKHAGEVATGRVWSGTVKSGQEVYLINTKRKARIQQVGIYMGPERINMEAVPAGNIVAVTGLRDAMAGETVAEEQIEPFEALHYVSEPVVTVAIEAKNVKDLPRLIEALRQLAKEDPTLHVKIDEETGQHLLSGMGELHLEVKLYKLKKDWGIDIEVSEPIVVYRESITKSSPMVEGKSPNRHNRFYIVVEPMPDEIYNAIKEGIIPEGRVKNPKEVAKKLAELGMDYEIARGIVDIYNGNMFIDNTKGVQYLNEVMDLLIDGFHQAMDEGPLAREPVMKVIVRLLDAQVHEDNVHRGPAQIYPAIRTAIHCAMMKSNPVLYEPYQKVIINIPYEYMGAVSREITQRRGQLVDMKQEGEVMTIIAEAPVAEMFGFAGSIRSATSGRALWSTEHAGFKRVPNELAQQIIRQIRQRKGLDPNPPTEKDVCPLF

PhoEF-2 N227S = target: T2, PhoEF-2 N227S (Pyrococcus horikoshii, UniProt O59521 1-732, N227S); assay: native gel or EMSA
T2 sequence (looked up): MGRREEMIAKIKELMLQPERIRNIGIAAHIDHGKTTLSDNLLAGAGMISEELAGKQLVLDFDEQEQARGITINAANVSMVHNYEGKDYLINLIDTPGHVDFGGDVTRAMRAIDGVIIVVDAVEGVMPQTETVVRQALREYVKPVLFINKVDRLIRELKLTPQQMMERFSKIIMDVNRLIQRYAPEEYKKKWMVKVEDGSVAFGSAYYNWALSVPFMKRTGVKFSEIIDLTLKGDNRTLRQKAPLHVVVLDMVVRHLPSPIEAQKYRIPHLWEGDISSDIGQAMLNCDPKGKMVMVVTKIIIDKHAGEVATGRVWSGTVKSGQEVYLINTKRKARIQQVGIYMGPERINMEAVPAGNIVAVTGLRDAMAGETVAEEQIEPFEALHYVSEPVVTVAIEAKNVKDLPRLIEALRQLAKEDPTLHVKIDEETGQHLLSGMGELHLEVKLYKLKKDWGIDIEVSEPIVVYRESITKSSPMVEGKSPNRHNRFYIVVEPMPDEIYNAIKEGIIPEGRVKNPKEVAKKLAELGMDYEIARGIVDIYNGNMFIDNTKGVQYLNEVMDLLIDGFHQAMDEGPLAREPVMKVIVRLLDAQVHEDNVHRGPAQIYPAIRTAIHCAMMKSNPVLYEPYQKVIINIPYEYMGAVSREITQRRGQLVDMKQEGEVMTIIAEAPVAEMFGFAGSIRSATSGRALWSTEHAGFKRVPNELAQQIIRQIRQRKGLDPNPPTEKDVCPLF

- binding result (PhoEF-2 K225S): binds
- binding result (PhoEF-2 N227S): binds
B1: Pyrococcus horikoshii ribosomal stalk protein P1 (natural protein, UniProt O57705 1-108, looked up)
chain: MEYVYAALLLHSVGKEINEENLKAVLQAAGVEPEEARIKALVAALEGVNIDEVIEKAAMPVAVAAAPAAAPAEAGGEEKKEEEKKEEEEKEEEVSEEEALAGLSALFG
modifications: in the SPR only: biotin on amino groups via a PEG linker (EZ-Link NHS-PEG4-Biotin)
